Source: publication PMC5439444 (Vascular pharmacology, 2016)

Target: GST fusion protein of human full-length (FL) Pin1 (residues 1-163) (human, UniProt Q13526 1-163)
Experiment: pull-down

Sequence of GST fusion protein of human full-length (FL) Pin1 (residues 1-163) (Q13526 whole entry, the tested form may be a part): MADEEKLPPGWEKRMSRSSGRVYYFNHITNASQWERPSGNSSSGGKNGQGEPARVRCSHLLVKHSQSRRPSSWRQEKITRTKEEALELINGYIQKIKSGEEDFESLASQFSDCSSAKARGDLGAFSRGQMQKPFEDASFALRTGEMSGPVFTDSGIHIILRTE

amount bound relative to WT eNOS: > 2 fold
B1: bovine phospho-mimetic S116D endothelial nitric oxide synthase (eNOS) (enzyme, UniProt P29473 1-1205, looked up)
chain: MGNLKSVGQEPGPPCGLGLGLGLGLCGKQGPASPAPEPSRAPAPATPHAPDHSPAPNSPTLTRPPEGPKFPRVKNWELGSITYDTLCAQSQQDGPCTPRCCLGSLVLPRKLQTRPDPGPPPAEQLLSQARDFINQYYSSIKRSGSQAHEERLQEVEAEVASTGTYHLRESELVFGAKQAWRNAPRCVGRIQWGKLQVFDARDCSSAQEMFTYICNHIKYATNRGNLRSAITVFPQRAPGRGDFRIWNSQLVRYAGYRQQDGSVRGDPANVEITELCIQHGWTPGNGRFDVLPLLLQAPDEAPELFVLPPELVLEVPLEHPTLEWFAALGLRWYALPAVSNMLLEIGGLEFSAAPFSGWYMSTEIGTRNLCDPHRYNILEDVAVCMDLDTRTTSSLWKDKAAVEINLAVLHSFQLAKVTIVDHHAATVSFMKHLDNEQKARGGCPADWAWIVPPISGSLTPVFHQEMVNYILSPAFRYQPDPWKGSATKGAGITRKKTFKEVANAVKISASLMGTLMAKRVKATILYASETGRAQSYAQQLGRLFRKAFDPRVLCMDEYDVVSLEHEALVLVVTSTFGNGDPPENGESFAAALMEMSGPYNSSPRPEQHKSYKIRFNSVSCSDPLVSSWRRKRKESSNTDSAGALGTLRFCVFGLGSRAYPHFCAFARAVDTRLEELGGERLLQLGQGDELCGQEEAFRGWAKAAFQASCETFCVGEEAKAAAQDIFSPKRSWKRQRYRLSTQAEGLQLLPGLIHVHRRKMFQATVLSVENLQSSKSTRATILVRLDTAGQEGLQYQPGDHIGICPPNRPGLVEALLSRVEDPPPPTESVAVEQLEKGSPGGPPPSWVRDPRLPPCTLRQALTFFLDITSPPSPRLLRLLSTLAEEPSEQQELETLSQDPRRYEEWKWFRCPTLLEVLEQFPSVALPAPLLLTQLPLLQPRYYSVSSAPNAHPGEVHLTVAVLAYRTQDGLGPLHYGVCSTWLSQLKTGDPVPCFIRGAPSFRLPPDPYVPCILVGPGTGIAPFRGFWQERLHDIESKGLQPAPMTLVFGCRCSQLDHLYRDEVQDAQERGVFGRVLTAFSREPDSPKTYVQDILRTELAAEVHRVLCLERGHMFVCGDVTMATSVLQTVQRILATEGDMELDEAGDVIGVLRDQQRYHEDIFGLTLRTQEVTSRIRTQSFSLQERHLRGAVPWAFDPPGPDTPGP
